According to the supplement of paper PMC10567573:

B1: ZNF24 (parent)
chain: THTKEQILELVVLEQFVAILPKEL
B2: MFF (parent)
chain: YTEGISQRMRVPEKLKVAPPNADL

Variants of: B1
Test: protein stability index of a GFP-peptide fusion (GPS, HEK-293T) (PSI 1-6); higher = more stable
Conditions: c terminus: a fixed tail appended
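Note: lentivirally expressed fusions sorted by FACS into six bins by GFP to DsRed ratio, PSI derived from sequencing read proportions per bin multiplied by bin number.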

Protein stability index, by site and new letter:
L24: H 2.66 | D 1.67 | W 2.54 | E 1.7 | C 2.88 | Q 1.81 | S 2.86 | N 1.06 | M 2.8 | R 2.47 | P 4.16 | A 2.57 | F 3.54 | Y 3.41 | G 2.16 | K 2.33 | V 4.07 | I 2.4 | T 2.7
K22: M 3.15 | N 2.39 | R 2.78 | S 3.45 | C 2.67 | Q 2.7 | H 2.12 | D 3.16 | F 3.51 | P 2.18 | T 2.89 | V 2.71 | Y 2.9 | G 4.16 | W 2.08
E23: P 3.16 | V 2.76 | F 2.69 | M 3.72 | L 1.68 | Y 3.09 | C 3.17 | I 2.56 | Q 2.54 | A 2.59 | R 2.77 | W 3.51 | T 1.75 | K 1.64 | N 2.97 | H 3.33 | D 2.29 | S 2.01 | G 3.15

Variants of: B2
Test: as above
Conditions: c terminus: a fixed tail appended

Protein stability index of substitutions, site by site:
S6: P 2.29 | G 2.86 | H 2.63 | T 2.98 | Q 2.71 | A 2.76 | V 2.19 | W 2.52 | F 2.14 | M 2.09 | Y 3.1 | K 2.45 | E 3.91 | C 2.6 | R 2.94 | L 2.85 | I 2.51 | N 2.93 | D 3.51
I5: R 3.78 | Y 2.41 | M 3.4 | F 2.13 | N 4.03 | H 3.81 | P 4.33 | Q 4.44 | K 4.18 | D 4.55 | T 3.9 | L 3.06 | A 4.19 | C 4.16 | W 2.75 | S 4.16 | E 4.78 | V 3.63 | G 3.72
Y1: S 4.48 | C 4.21 | H 4.52 | L 4.21 | T 4.31 | I 3.87 | D 4.48 | P 4.64 | R 4.22 | G 4.57 | F 2.52 | M 4.59 | W 4.21 | V 4.25 | E 4.55 | K 4.27 | N 4.67 | Q 4.41 | A 4.62
G4: D 4.46 | S 3.88 | Y 2.69 | M 2.52 | V 3.21 | H 3.46 | T 3.45 | Q 3.5 | W 2.25 | E 3.61 | R 3.72 | L 2.47 | P 3.79 | N 3.75 | A 3.9 | K 3.63 | F 2.32 | C 3.47 | I 3
E3: Q 3.01 | W 1.53 | A 2.96 | V 2.44 | D 3.24 | M 2.48 | H 2.92 | P 2.29 | S 2.54 | C 2.28 | F 1.9 | Y 2.69 | T 2.56 | K 2.41 | R 3.03 | G 2.3 | I 2.42 | L 2.58 | N 3.3
T2: W 3.17 | I 1.65 | D 4.18 | E 4.85 | F 3.2 | Y 3.2 | P 3.48 | V 2.46 | R 3.88 | G 3.85 | N 3.69 | L 2.13 | M 3.46 | A 2.72 | C 2.65 | K 3.92 | Q 3.03 | S 3.81 | H 2.69
